The chains are these.
B1: glmS ribozyme (parent)
chain: AUAAAAGCGCCAGAACUACAGAAAUGUAGUUGACGAGGAGGAGGUUUAUCGAAUUUUCGGCGGAUGCCUCCAAA

Holding throughout (settings): with glucosamine-6-phosphate
In data set [1] the parent is B1. The data set can be described thus: kcat; higher = faster cleavage; RNA array. The method, boiled down: (§1)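 Tiles of sequenced MiSeq chips were imaged over ~14 h at 37 °C. On them, barcoded ribozyme variants had been transcribed in situ by E. coli RNA polymerase and were tracked via a hybridised Cy3 probe while glucosamine-6-phosphate (40 μM to 10 mM) in HEPES/KCl/Mg(OAc)2 buffer flowed in. Per-tile medians, normalised to baseline and to non-cleaving reference variants, were fit to one- or two-exponential decays for kobs, and weighted Michaelis–Menten fits gave kcat and KM.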

In data set [2] the parent is B1. The experiment in a line: self-cleavage kobs at 160 uM GlcN6P; higher = faster cleavage; RNA array. The method, boiled down:
as §1

Variants of B1 are the subject of data set [3]. The experiment in a line: self-cleavage kobs at 640 uM GlcN6P; higher = faster cleavage; RNA array. The gist of the method: as §1
Data set [4] covers variants of B1. The experiment in a line: self-cleavage kobs at 2500 uM GlcN6P; higher = faster cleavage; RNA array. The method, boiled down: as §1
The variants in data set [5] derive from B1. The data set can be described thus: self-cleavage kobs at 10000 uM GlcN6P; higher = faster cleavage; RNA array. The method, boiled down: as §1
Data set [6] covers variants of B1. The data set can be described thus: KM; higher = weaker cofactor use; RNA array. The gist of the method:
as §1

In data set [7] the parent is B1. The data set can be described thus: self-cleavage kobs at 40 uM GlcN6P; higher = faster cleavage; RNA array. The gist of the method:
as §1

± gives the standard error. For some of these results: This sample holds only a part of the variants without activity. Bounds are passed on as bounds.

Regarding G29U C58A, the kcat with glucosamine-6-phosphate [1] is 0.000289 ± 9.9e-05 s⁻¹. Moreover, the “self-cleavage kobs at 160 uM GlcN6P” value with glucosamine-6-phosphate [2] was found to be 3.39e-05 ± 1.2e-05 s⁻¹. Besides, the “self-cleavage kobs at 640 uM GlcN6P” value with glucosamine-6-phosphate [3] turned out to be 5.13e-05 ± 1e-05 s⁻¹. For the same variant, in the data set with glucosamine-6-phosphate [4], the “self-cleavage kobs at 2500 uM GlcN6P” value worked out at 0.000103 ± 1e-05 s⁻¹. The “self-cleavage kobs at 10000 uM GlcN6P” value with glucosamine-6-phosphate [5] came out at 0.000231 ± 3e-05 s⁻¹.
As for A14U A53C, the kcat in the data set with glucosamine-6-phosphate [1] was 0.00136 ± 0.00017 s⁻¹. Moreover, the KM with glucosamine-6-phosphate [6] stood at 1970 ± 410 µM. Further, the “self-cleavage kobs at 40 uM GlcN6P” value in the data set with glucosamine-6-phosphate [7] amounted to 3.59e-05 ± 9.1e-06 s⁻¹. Moreover, in the data set with glucosamine-6-phosphate [2], the “self-cleavage kobs at 160 uM GlcN6P” value came out at 9.57e-05 ± 1.5e-05 s⁻¹. In addition, the “self-cleavage kobs at 640 uM GlcN6P” value with glucosamine-6-phosphate [3] came out at 0.000309 ± 3.9e-05 s⁻¹. Further, in the data set with glucosamine-6-phosphate [4], the “self-cleavage kobs at 2500 uM GlcN6P” value turned out to be 0.000834 ± 7.7e-05 s⁻¹. In addition, the “self-cleavage kobs at 10000 uM GlcN6P” value in the data set with glucosamine-6-phosphate [5] is 0.00105 ± 0.00014 s⁻¹.
For the variant A15U C68A, in the data set with glucosamine-6-phosphate [1], the kcat was 2.71e-05 ± 1e-05 s⁻¹. The “self-cleavage kobs at 2500 uM GlcN6P” value in the data set with glucosamine-6-phosphate [4] amounted to 3.7e-05 ± 1.7e-05 s⁻¹.
Turning to G13A G32C, the kcat with glucosamine-6-phosphate [1] was found to be 0.00056 ± 0.00021 s⁻¹. Besides, in the data set with glucosamine-6-phosphate [3], the “self-cleavage kobs at 640 uM GlcN6P” value stood at 6.56e-05 ± 8.7e-06 s⁻¹. In addition, the “self-cleavage kobs at 2500 uM GlcN6P” value with glucosamine-6-phosphate [4] turned out to be 0.000136 ± 1.8e-05 s⁻¹. The “self-cleavage kobs at 10000 uM GlcN6P” value with glucosamine-6-phosphate [5] worked out at 0.000388 ± 5.3e-05 s⁻¹.
C11U U45G U54A: in the data set with glucosamine-6-phosphate [1], the kcat turned out to be 0.000206 ± 5.6e-05 s⁻¹. The “self-cleavage kobs at 2500 uM GlcN6P” value in the data set with glucosamine-6-phosphate [4] amounted to 0.000119 ± 2.7e-05 s⁻¹. In addition, the “self-cleavage kobs at 10000 uM GlcN6P” value with glucosamine-6-phosphate [5] was determined as 0.000152 ± 3.4e-05 s⁻¹.
Regarding C16U G32A A33G C58U C70G, the kcat with glucosamine-6-phosphate [1] was 3.69e-05 ± 8.5e-06 s⁻¹.
Regarding U47A C68G, the kcat with glucosamine-6-phosphate [1] was found to be 4.89e-05 ± 9.9e-06 s⁻¹. Further, the “self-cleavage kobs at 640 uM GlcN6P” value with glucosamine-6-phosphate [3] is 4.99e-05 ± 1.2e-05 s⁻¹. Also, the “self-cleavage kobs at 2500 uM GlcN6P” value in the data set with glucosamine-6-phosphate [4] worked out at 6.81e-05 ± 1.2e-05 s⁻¹. The “self-cleavage kobs at 10000 uM GlcN6P” value with glucosamine-6-phosphate [5] was determined as 3.56e-05 ± 9.2e-06 s⁻¹.
In the case of G51A A53G, in the data set with glucosamine-6-phosphate [1], the kcat worked out at 1.13e-05 ± 5.2e-06 s⁻¹.
As for U31C C67G, the kcat in the data set with glucosamine-6-phosphate [1] stood at 4.05e-05 ± 1e-06 s⁻¹. Also, the KM with glucosamine-6-phosphate [6] turned out to be 467 ± 76 µM. Besides, the “self-cleavage kobs at 40 uM GlcN6P” value with glucosamine-6-phosphate [7] is under 1e-05 s⁻¹. For the same variant, the “self-cleavage kobs at 640 uM GlcN6P” value with glucosamine-6-phosphate [3] came to 2.33e-05 ± 8.8e-06 s⁻¹. Moreover, in the data set with glucosamine-6-phosphate [4], the “self-cleavage kobs at 2500 uM GlcN6P” value stood at 3.49e-05 ± 6.3e-06 s⁻¹. For the same variant, the “self-cleavage kobs at 10000 uM GlcN6P” value in the data set with glucosamine-6-phosphate [5] was found to be 3.83e-05 ± 5.5e-06 s⁻¹.
For G41C U47A, the kcat with glucosamine-6-phosphate [1] stood at 0.000354 ± 1.6e-05 s⁻¹. The KM with glucosamine-6-phosphate [6] amounted to 4510 ± 420 µM. In the data set with glucosamine-6-phosphate [3], the “self-cleavage kobs at 640 uM GlcN6P” value is 4.21e-05 ± 1.2e-05 s⁻¹. The “self-cleavage kobs at 2500 uM GlcN6P” value in the data set with glucosamine-6-phosphate [4] is 0.000134 ± 2.8e-05 s⁻¹. In addition, the “self-cleavage kobs at 10000 uM GlcN6P” value with glucosamine-6-phosphate [5] is 0.000243 ± 2.7e-05 s⁻¹.
Turning to G13A U49C, the kcat with glucosamine-6-phosphate [1] was under 1e-05 s⁻¹. The “self-cleavage kobs at 40 uM GlcN6P” value with glucosamine-6-phosphate [7] is under 1e-05 s⁻¹. Also, the “self-cleavage kobs at 10000 uM GlcN6P” value in the data set with glucosamine-6-phosphate [5] was under 1e-05 s⁻¹.
Consider A39U A53U, for which the kcat with glucosamine-6-phosphate [1] amounted to 0.0113 ± 0.0033 s⁻¹. In addition, the KM with glucosamine-6-phosphate [6] was 1260 ± 530 µM. Further, the “self-cleavage kobs at 40 uM GlcN6P” value in the data set with glucosamine-6-phosphate [7] was 0.000461 ± 5e-05 s⁻¹. The “self-cleavage kobs at 160 uM GlcN6P” value with glucosamine-6-phosphate [2] was found to be 0.000985 ± 0.00016 s⁻¹. For the same variant, the “self-cleavage kobs at 640 uM GlcN6P” value with glucosamine-6-phosphate [3] came to 0.00368 ± 0.00054 s⁻¹. In addition, in the data set with glucosamine-6-phosphate [4], the “self-cleavage kobs at 2500 uM GlcN6P” value turned out to be 0.00619 ± 0.001 s⁻¹. Further, the “self-cleavage kobs at 10000 uM GlcN6P” value with glucosamine-6-phosphate [5] was 0.0126 ± 0.0017 s⁻¹.
Take A39C C71G: the kcat in the data set with glucosamine-6-phosphate [1] was 1.47e-05 ± 1.2e-06 s⁻¹. Also, the “self-cleavage kobs at 160 uM GlcN6P” value with glucosamine-6-phosphate [2] is under 1e-05 s⁻¹.
Regarding G13A C67A, the kcat in the data set with glucosamine-6-phosphate [1] stood at 0.000273 ± 6.7e-05 s⁻¹. For the same variant, the KM with glucosamine-6-phosphate [6] was determined as 4490 ± 2100 µM. For the same variant, the “self-cleavage kobs at 640 uM GlcN6P” value with glucosamine-6-phosphate [3] was 2.62e-05 ± 8.7e-06 s⁻¹. In addition, the “self-cleavage kobs at 2500 uM GlcN6P” value with glucosamine-6-phosphate [4] stood at 0.000133 ± 2.4e-05 s⁻¹. Besides, in the data set with glucosamine-6-phosphate [5], the “self-cleavage kobs at 10000 uM GlcN6P” value came to 0.000181 ± 2.5e-05 s⁻¹.
For the variant A6U U55G, the kcat in the data set with glucosamine-6-phosphate [1] turned out to be 0.00137 ± 0.00067 s⁻¹. In the data set with glucosamine-6-phosphate [3], the “self-cleavage kobs at 640 uM GlcN6P” value turned out to be 4.48e-05 ± 1e-05 s⁻¹. For the same variant, the “self-cleavage kobs at 2500 uM GlcN6P” value in the data set with glucosamine-6-phosphate [4] amounted to 0.000118 ± 1.9e-05 s⁻¹. The “self-cleavage kobs at 10000 uM GlcN6P” value with glucosamine-6-phosphate [5] was 0.000416 ± 6.4e-05 s⁻¹.
As for G35U U65A, the kcat with glucosamine-6-phosphate [1] was under 1e-05 s⁻¹. Further, the “self-cleavage kobs at 40 uM GlcN6P” value with glucosamine-6-phosphate [7] was under 1e-05 s⁻¹. Further, in the data set with glucosamine-6-phosphate [3], the “self-cleavage kobs at 640 uM GlcN6P” value is under 1e-05 s⁻¹. Besides, the “self-cleavage kobs at 2500 uM GlcN6P” value with glucosamine-6-phosphate [4] is under 1e-05 s⁻¹.
As to A6U C68A, in the data set with glucosamine-6-phosphate [1], the kcat is under 1e-05 s⁻¹.
With U55C G66C, the kcat with glucosamine-6-phosphate [1] came out at 0.00112 ± 9.6e-05 s⁻¹. Also, the KM in the data set with glucosamine-6-phosphate [6] was 1950 ± 340 µM. Moreover, the “self-cleavage kobs at 160 uM GlcN6P” value in the data set with glucosamine-6-phosphate [2] was 7.47e-05 ± 1.8e-05 s⁻¹. Besides, the “self-cleavage kobs at 640 uM GlcN6P” value in the data set with glucosamine-6-phosphate [3] is 0.000336 ± 7.1e-05 s⁻¹. For the same variant, the “self-cleavage kobs at 2500 uM GlcN6P” value with glucosamine-6-phosphate [4] was determined as 0.000678 ± 0.00012 s⁻¹. In addition, the “self-cleavage kobs at 10000 uM GlcN6P” value with glucosamine-6-phosphate [5] stood at 0.000913 ± 9.7e-05 s⁻¹.

By kcat is commonly meant the maximal rate divided by the concentration of active sites. One may read the KM as the substrate concentration at which the rate is half of its maximum.

Values taken from the supplement of paper PMC7125110.
